Laboratory results reported in patent US20250243289A1 (PROMETHEUS BIOSCIENCES, published 2025).
Numbering of substitutions follows the chain as printed. Numbers in names are those of the source. Where “and” joins values, the source holds several entries; their conditions need not be identical. Identical values can stand only once. Each block holds one binder with its values, some of them ahead of it.

Experiments:
[1] = target: T1, recombinant human TL1A protein (tumor necrosis factor-like cytokine 1A) (human, UniProt O95150 72-251); experiment: cell-based or functional assay
T1 sequence (looked up): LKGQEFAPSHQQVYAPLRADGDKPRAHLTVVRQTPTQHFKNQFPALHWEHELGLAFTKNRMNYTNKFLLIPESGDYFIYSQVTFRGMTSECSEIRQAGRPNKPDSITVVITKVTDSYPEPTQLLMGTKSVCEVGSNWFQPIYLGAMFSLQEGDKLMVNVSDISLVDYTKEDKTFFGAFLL

[2] = target: T2, recombinant cynomolgus monkey TL1A protein (cynomolgus monkey, UniProt G7PRK8 72-251); experiment: cell-based or functional assay
T2 sequence: T1 sequence (looked up) with F39L, I78V

[3] = target: monkey TL1A in the in vitro monkey whole blood IFN-γ assay (monkey); experiment: cell-based or functional assay
[4] = target: T3, human TL1A, endogenous in human whole blood (human, UniProt O95150 72-251, limits assumed); experiment: cell-based or functional assay
T3 sequence (looked up): T1 sequence (looked up)

recombinant TL1A antigen = target: T4, recombinant TL1A antigen (UniProt O95150 72-251, limits assumed); experiment: ELISA titration against recombinant TL1A antigen
T4 sequence (looked up): T1 sequence (looked up)

B2: A212 (antibody, human IgG1, V domains shown)
VH: QVQLVQSGAEVKKPGASVKVSCKASGFDIQDTYMHWVRQRPGQGLEWIGRIDPASGHTKYDPKFQVRATITTDTSTSTAYLELSSLRSEDTAVYYCARSGGLPDVWGQGTTVTVSS
VL: EIVLTQSPGTLSLSPGERATLSCRASSSVSYMYWYQQKPGQAPRPLIYATSNLASGIPDRFSGSGSGTDFTLTISRLEPEDFAVYYCQQWEGNPRTFGGGTKLEIK
% Inhibition at 1 nM Ig (interferon gamma release in human blood) [4]: 46.8% | % Inhibition at 10 nM Ig (interferon gamma release in human blood) [4]: 71.2%

B3: A213 (antibody, human IgG1, V domains shown)
VH: B2 VH with I48M, A68V, A79V, L81M
VL: B2 VL
% Inhibition at 1 nM Ig (interferon gamma release in human blood) [4]: 48.6% | % Inhibition at 10 nM Ig (interferon gamma release in human blood) [4]: 69.8%

B4: A217 (antibody, human IgG1, V domains shown)
VH: B2 VH with R38K, I48M, A68V, T72R, A79V, L81M
VL: B2 VL
% Inhibition at 1 nM Ig (interferon gamma release in human blood) [4]: 46% | % Inhibition at 10 nM Ig (interferon gamma release in human blood) [4]: 72.2%

B7: A147 (antibody, human IgG1, V domains shown)
VH: QVQLVQSGAEVKKPGASVKVSCKASGFDIQDTYMHWVKQRPGQGLEWMGRIEPASGHIKYDPKFQGRVTMTRDTSTSTVYMELSSLRSEDTAVYYCARSGGLPDWWGQGTTVTVSS
VL: B2 VL
% Inhibition at 1 nM Ig (interferon gamma release in human blood) [4]: 51.3% | % Inhibition at 10 nM Ig (interferon gamma release in human blood) [4]: 72.4%

More lines, main results first:

inhibition of monkey TL1A-induced caspase activation in TF-1 cells (IC50) [2]: 0.59 nM | inhibition of the IFN-γ response in monkey whole blood stimulated with immune complex, IL-12 and IL-18 (mean IC50) [2]: 1.54 nM and 289 ng/ml | IC50 of the in vitro monkey whole blood IFN-γ release assay [3]: 1.54 nM and 289 ng/mL
B1: anti-TL1A antibody A219 (antibody, V domains shown)
VH: B2 VH with R38K, I48M, A68V, T72R, A79V
VL: B2 VL
inhibition of human TL1A-induced caspase activation in TF-1 cells (IC50) [1]: 0.27 nM

% Inhibition at 1 nM Ig (interferon gamma release in human blood) [4]: 59.8% | % Inhibition at 10 nM Ig (interferon gamma release in human blood) [4]: 75.2%
B5: A219 (antibody, V domains shown)
VH: B2 VH with R38K, I48M, A68V, T72R, A79V
VL: B2 VL

% Inhibition at 1 nM Ig (interferon gamma release in human blood) [4]: 36.9% | % Inhibition at 10 nM Ig (interferon gamma release in human blood) [4]: 63.2%
B6: A220 (antibody, human IgG1, V domains shown)
VH: B2 VH with R38K, I48M, A68V, I70M, T72R
VL: B2 VL with L46W

EC50 (recombinant TL1A antigen): 0.324 nM
B8: anti-TL1A antibody with heavy chain SEQ ID NO: 379 (S228P, L235E) and light chain SEQ ID NO: 381 (antibody, human IgG4 S228P, kappa)
heavy: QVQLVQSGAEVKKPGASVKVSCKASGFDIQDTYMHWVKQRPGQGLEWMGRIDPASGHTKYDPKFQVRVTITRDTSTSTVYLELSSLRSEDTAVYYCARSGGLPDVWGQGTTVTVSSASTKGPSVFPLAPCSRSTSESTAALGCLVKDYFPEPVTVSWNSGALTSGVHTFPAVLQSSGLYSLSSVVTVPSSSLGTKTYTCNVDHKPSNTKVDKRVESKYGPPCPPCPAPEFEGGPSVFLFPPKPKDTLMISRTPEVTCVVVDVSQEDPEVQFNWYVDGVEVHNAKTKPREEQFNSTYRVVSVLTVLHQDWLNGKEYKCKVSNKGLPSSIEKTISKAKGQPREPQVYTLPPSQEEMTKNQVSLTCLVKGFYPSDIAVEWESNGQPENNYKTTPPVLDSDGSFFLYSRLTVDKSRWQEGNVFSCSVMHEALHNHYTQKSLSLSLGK
light: EIVLTQSPGTLSLSPGERATLSCRASSSVSYMYWYQQKPGQAPRPLIYATSNLASGIPDRFSGSGSGTDFTLTISRLEPEDFAVYYCQQWEGNPRTFGGGTKLEIKRTVAAPSVFIFPPSDEQLKSGTASVVCLLNNFYPREAKVQWKVDNALQSGNSQESVTEQDSKDSTYSLSSTLTLSKADYEKHKVYACEVTHQGLSSPVTKSFNRGEC
notes: IgG4
